Results as given in patent US20090098111A1 (CALIFORNIA INSTITUTE OF TECHNOLOGY, published 2009).
Each block holds one binder with its values, some of them ahead of it.

Assays:
[1] = biological target: T1, Xatr (endogenous Xenopus ATR in egg extracts) (Xenopus laevis, UniProt Q9DE14 1-2654); experiment: GST pull-down from Xenopus egg extracts, immunoblot
T1 construct: Endogenous protein of whole or mock-depleted egg extracts, where endogenous Xatrip is also present

[2] = biological target: T1, Xatr (endogenous Xenopus ATR in egg …); experiment: GST pull-down from Xenopus egg extracts, immunoblot (FIG. 4A)
Experimental: The extracts were filtered through a G25 Sephadex column to remove endogenous glutathione and incubated with glutathione agarose beads. The beads were isolated and immunoblotted for Xatr (top) and Xatrip (bottom). In FIG. 4B, egg extracts (lane 1) were immunodepleted with control (lane 2) or anti-Xatrip antibodies (lanes 3 and 4). For lane 4, recombinant XatripΔN222-FLAG was added back later. Extracts were immunoblotted with anti-Xatr (top) and anti-Xatrip antibodies (bottom). […] Binding of Xatr to glutathione beads was determined by immunoblotting as in FIG. 4A. In FIG. 4D, Xatr was immunoprecipitated from mock-depleted (lanes 1 and 2) and Xatrip-depleted extracts (lanes 3 and 4). Twice as much Xatrip-depleted extract was immunoprecipitated due to its reduced content of Xatr. […] Samples were also immunoblotted for Xatr (top) and Xatrip (middle).

T1 sequence (Q9DE14 whole entry): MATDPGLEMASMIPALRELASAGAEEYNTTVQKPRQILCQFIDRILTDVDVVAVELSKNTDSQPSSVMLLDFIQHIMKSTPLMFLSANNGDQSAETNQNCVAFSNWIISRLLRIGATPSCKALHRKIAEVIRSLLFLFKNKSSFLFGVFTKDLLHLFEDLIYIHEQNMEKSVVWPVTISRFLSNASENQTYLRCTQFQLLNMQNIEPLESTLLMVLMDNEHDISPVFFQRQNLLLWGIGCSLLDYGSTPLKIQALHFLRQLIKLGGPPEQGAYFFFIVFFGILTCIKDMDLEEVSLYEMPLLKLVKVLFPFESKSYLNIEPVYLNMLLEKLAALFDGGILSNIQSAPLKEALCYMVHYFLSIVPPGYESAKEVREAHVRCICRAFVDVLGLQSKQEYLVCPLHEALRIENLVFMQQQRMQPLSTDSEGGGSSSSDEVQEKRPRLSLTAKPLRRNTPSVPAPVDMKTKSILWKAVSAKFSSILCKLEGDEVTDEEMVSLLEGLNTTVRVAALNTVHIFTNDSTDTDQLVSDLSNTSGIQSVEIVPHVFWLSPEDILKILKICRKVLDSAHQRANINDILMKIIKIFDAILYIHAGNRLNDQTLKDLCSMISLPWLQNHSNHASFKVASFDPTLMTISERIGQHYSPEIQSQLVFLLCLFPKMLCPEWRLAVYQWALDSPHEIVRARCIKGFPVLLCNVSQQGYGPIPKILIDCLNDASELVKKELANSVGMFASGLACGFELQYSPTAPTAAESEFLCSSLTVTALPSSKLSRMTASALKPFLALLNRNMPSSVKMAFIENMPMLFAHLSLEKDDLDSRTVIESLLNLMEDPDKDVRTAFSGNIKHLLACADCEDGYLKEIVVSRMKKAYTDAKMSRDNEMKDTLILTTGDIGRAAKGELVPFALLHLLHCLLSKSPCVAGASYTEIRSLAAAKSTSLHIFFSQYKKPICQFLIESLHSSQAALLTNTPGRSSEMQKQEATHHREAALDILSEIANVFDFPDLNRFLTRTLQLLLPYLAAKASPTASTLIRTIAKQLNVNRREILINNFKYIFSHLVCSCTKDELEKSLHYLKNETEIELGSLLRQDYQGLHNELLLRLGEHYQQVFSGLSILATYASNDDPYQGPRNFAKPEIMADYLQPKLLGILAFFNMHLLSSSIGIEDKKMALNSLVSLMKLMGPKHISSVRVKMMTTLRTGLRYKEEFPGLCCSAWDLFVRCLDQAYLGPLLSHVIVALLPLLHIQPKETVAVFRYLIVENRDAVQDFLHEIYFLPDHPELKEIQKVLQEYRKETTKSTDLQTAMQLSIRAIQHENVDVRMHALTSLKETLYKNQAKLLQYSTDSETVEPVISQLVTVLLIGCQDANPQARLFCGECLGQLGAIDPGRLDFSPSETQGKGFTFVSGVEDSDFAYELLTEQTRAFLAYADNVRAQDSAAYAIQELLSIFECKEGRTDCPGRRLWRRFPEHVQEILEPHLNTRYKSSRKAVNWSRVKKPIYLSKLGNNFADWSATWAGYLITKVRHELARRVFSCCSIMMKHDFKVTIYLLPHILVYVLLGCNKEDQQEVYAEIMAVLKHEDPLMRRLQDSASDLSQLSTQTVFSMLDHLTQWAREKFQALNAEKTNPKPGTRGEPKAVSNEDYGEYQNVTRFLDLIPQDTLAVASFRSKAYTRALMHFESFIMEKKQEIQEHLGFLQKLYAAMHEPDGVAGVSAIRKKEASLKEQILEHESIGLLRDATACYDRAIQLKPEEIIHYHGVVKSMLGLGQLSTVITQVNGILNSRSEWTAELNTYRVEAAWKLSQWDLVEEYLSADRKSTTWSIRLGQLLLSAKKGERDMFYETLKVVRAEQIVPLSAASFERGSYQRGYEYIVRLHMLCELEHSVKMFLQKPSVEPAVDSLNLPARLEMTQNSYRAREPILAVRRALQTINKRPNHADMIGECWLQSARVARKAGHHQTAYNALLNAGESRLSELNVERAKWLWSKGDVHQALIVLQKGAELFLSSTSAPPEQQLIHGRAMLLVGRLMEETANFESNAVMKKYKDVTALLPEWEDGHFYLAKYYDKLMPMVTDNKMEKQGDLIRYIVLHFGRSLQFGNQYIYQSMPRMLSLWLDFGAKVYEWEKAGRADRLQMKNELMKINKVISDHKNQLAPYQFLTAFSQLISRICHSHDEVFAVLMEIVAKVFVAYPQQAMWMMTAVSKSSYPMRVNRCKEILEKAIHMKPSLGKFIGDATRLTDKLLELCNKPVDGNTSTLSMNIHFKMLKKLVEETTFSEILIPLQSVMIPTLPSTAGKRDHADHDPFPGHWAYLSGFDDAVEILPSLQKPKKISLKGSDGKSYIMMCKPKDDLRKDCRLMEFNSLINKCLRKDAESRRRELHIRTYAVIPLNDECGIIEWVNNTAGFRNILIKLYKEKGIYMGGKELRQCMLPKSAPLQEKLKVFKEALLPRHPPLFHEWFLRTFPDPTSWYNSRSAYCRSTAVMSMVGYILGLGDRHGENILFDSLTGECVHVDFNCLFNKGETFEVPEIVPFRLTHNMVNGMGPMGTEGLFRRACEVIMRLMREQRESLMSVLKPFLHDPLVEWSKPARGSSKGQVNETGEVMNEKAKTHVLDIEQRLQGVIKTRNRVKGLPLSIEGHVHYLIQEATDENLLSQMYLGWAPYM

binding result [1]: no binding
B1: GST-XtopBP1 (333-646) (other)
chain: MASRLDPPADTLENLDISSLQAPDDLLDGCRIYLCGFGGRKLDKLRKLINNGGGVRFNQLTGDVTHIIVGETDEELKQFLNKTQHRPYVLTVKWLLDSFAKGHLQPEEIYFHSSYQQTEMPSPFEPAINLTANKMSSTRGPLNHTRNHQADEDLLSQYTENNSTLIEDEHPKTSNTNSISQMSMHEDMTTCTSQSGLADTSTIIEGGLFSRKQFMVLGFLEEDEACIIDIIKKSAGKVLSSQKRAIADYAVVPLLGCEVESTVGEVVTNAWLGMCIEQEKLLDPHSNALFTPVPFLEGSTPLRECVLSVSQFMG
notes: BRCT-containing fragment; not shown: glutathione-S-transferase (GST) fusion partner

binding result [1]: no binding
B2: GST-XtopBP1 (1-348) (other)
chain: MASSENEPFCVKFIKSPENSEYFFKAYEAIKQIQSDESLQLTEEREALLLKEKDKSLYICDPFSGAAFSHLKKLGCRIVGPQVVIFCMENQRRVPRAEYPVYNMAMADVTISCTSLDKETREDVHHYVQIMGGCVYRDLNVSVTHLIAGEVGSKKYLVAASLEKPILLPSWVKELWEKSNQRIIRYSDVNMTEYLCPIFRGCTICVTGLSSLDRKEVQRLTALHGGEYTGQLKMNESTHLIVQEAKGQKYECARKWNVHCISVQWFFDSIEKGFCQDETMYKIEPASTIKSVPDTSTPTGGNSKPNSRALYDVSQISNISTSCVNESAFNSAMASRLDPPADTLENLD
notes: as for B1

binding result [1]: no binding
B3: GST-XtopBP1 (623-984) (other)
chain: TPVPFLEGSTPLRECVLSVSQFMGAERDSLVYLAGLLGAKVQEFFVRKANPKKGMFASTHLVLKDAEGSKYEAAKKWNLPAVTMNWLLQCARTGRKADEDSYLVDNVPEEDKDESFISQTYKPQAIRLSMHAPCHLENHPEALTKAAVTPLDMNRFKSKAFQSVISQHNKNPQTSGGESKVLQREPSLHLDTPSKFLSKDKLFKPSFDVKDALAALETPGGPNQKNRTQSTPLSEVIGRNLQLAIANSTRQTAAVTASPQLKAAEKKEFDNSKLLINVVICVSKKLIKKQGELNGIAASLGAEYRWCFDESVTHFIYHGRQNDMSREYKSVKERSGIYIVSEHWLFACSEQQKRVPEALYPH
notes: BRCT-containing fragment; also called GST fusion of the 623-984 segment from XtopBP1; not shown: glutathione-S-transferase (GST) fusion partner

binding result [2]: no binding
B4: GST-XtopBP1 (1197-1513) (other)
chain: EFEPKSAMRTPVIENNLQSPTKPDHLTPTPQAPSIAFPLANPPVAPQPREKPVQPFSKEETLKERRFQLSSLDPQERIDYSQLIEELGGVVIEKQCFDPSCTHIVVGHPLRNEKYLASMAAGKWVLHRSYLEACRAAKRFIQEEDYEWGSISILSAVTNINPQQRMLAEAAMRWRKKLQGIKQNMGIAEGAFSGWKVILNVDQTKEPGFKRLLQSGGAKVFAGHSSPLFKEASHLFADFSKLKPDEPRVNVAEAAAQGVNCLKPEYIADYLMKELPPPMNNYCLPDAIPYVRVTGTGLSRKRKTSGDVSDVKRSRHY
notes: as for B1
